# Reference: patent US20130225493A1
# B1: FGF-18 (recombinant wild type, mature form without the signal peptide), O76093 29-207 (ligand)
# chain: MENVDFRIHVENQTRARDDVSRKQLRLYQLYSRTSGKHIQVLGRRISARGEDGDKYAQLLVETDTFGSQVRIKGKETEFYLCMNRKGKLVGKPDGTSKECVFIEKVLENNYTALMSAKYSGWYVGFTKKGRPRKGPKTRENQQDVHFMKRYPKGQPELQKPFKYTTVTKRSRRIRPTHPA
# modifications: here or on the partner: biotinylated in the immobilized receptor assays (sites not given)
# B2: FGF-18^Δ51, O76093 52-207 (ligand)
# chain: MLRLYQLYSRTSGKHIQVLGRRISARGEDGDKYAQLLVETDTFGSQVRIKGKETEFYLCMNRKGKLVGKPDGTSKECVFIEKVLENNYTALMSAKYSGWYVGFTKKGRPRKGPKTRENQQDVHFMKRYPKGQPELQKPFKYTTVTKRSRRIRPTHPA
# modifications: here or on the partner: biotinylated in the immobilized receptor assays (sites not given)
# B3: FGF-18^Δ45, O76093 46-207 (ligand)
# chain: MDVSRKQLRLYQLYSRTSGKHIQVLGRRISARGEDGDKYAQLLVETDTFGSQVRIKGKETEFYLCMNRKGKLVGKPDGTSKECVFIEKVLENNYTALMSAKYSGWYVGFTKKGRPRKGPKTRENQQDVHFMKRYPKGQPELQKPFKYTTVTKRSRRIRPTHPA
# modifications: here or on the partner: biotinylated in the immobilized receptor assays (sites not given)
# B4: FGF-18^Δ37, O76093 38-207 (ligand)
# chain: MENQTRARDDVSRKQLRLYQLYSRTSGKHIQVLGRRISARGEDGDKYAQLLVETDTFGSQVRIKGKETEFYLCMNRKGKLVGKPDGTSKECVFIEKVLENNYTALMSAKYSGWYVGFTKKGRPRKGPKTRENQQDVHFMKRYPKGQPELQKPFKYTTVTKRSRRIRPTHPA
# modifications: here or on the partner: biotinylated in the immobilized receptor assays (sites not given)
# Molecular target: FGFR3-IIIc stably expressed on FDCP cells, P22607
# Experiment: cell-based or functional assay
# Sequence of FGFR3-IIIc stably expressed on FDCP cells, P22607 (P22607 23-806): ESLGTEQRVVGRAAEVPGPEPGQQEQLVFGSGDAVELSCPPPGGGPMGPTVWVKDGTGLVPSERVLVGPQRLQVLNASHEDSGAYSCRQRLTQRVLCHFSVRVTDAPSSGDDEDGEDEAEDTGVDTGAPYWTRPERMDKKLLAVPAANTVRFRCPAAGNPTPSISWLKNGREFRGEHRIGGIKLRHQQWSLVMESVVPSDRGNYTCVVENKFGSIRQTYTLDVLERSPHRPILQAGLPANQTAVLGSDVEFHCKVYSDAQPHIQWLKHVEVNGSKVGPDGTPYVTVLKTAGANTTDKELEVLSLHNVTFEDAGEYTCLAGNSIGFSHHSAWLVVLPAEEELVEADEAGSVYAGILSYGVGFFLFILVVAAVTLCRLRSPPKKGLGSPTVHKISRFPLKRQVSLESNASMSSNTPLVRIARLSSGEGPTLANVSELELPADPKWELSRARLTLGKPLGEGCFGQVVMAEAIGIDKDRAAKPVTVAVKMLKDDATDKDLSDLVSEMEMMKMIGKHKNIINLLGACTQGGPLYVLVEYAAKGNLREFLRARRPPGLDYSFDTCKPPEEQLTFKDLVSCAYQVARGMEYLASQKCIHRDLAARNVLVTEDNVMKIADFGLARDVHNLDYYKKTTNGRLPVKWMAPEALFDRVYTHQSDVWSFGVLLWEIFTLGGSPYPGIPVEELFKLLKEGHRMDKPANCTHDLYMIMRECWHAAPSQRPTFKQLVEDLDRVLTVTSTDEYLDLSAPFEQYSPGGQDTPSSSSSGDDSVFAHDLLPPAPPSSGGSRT
row,Binder,EC50 scores of FGF ligands in cell proliferation of FDCPR3 [ng/mL]
1,B1,15.4
2,B2,3.97
3,B3,5.44
4,B4,3.14
